Measurements as given in paper PMC7083938.
pKd: −log10 of the molar value. Several values for one entry are separate records, joined by “and”; a condition that tells them apart may be missing. Identical values can stand only once. Like-named read-outs stand apart in the source and are kept apart here.

Legend:
mRobo3 FN1-3 (mouse) = experiment: SPR; biotinylated mRobo3 FN1-3 on a Biacore SA chip; mNELL2 EGF1-6 WT and mutants as analytes over the same channel; 20 s 10 mM EDTA pH 8, 150 mM NaCl between runs; 25 °C, 10 mM HEPES pH 7.2, 150 mM NaCl, 0.05% Tween-20, 0.1% BSA; equilibrium, 1:1 Langmuir
[1] = target: mRobo3 ectodomain (mouse); experiment: SPR; mRobo3 ECD (167 RU) or mRobo1Robo3-FN1 ECD (177 RU), NHS-biotin, on a Biacore Series S SA chip; mNELL2 full length or mNELL2 EGF1-6 as analyte; regeneration with 10 mM EDTA; equilibrium, 1:1 model with a linear non-specific binding term
[2] = target: mRobo1Robo3-FN1 ECD chimera (mouse) (UniProt O89026); experiment: as above
mRobo1 FN1-3 (mouse) = mRobo1 FN1-3 (mouse) (UniProt O89026); experiment: SPR; mRobo1 FN1-3 (NHS-biotin on the N-terminal amine, 315 RU) on a Biacore SA chip; mNELL2 EGF1-6 as analyte; 25 °C, 10 mM HEPES pH 7.2, 150 mM NaCl, 0.05% Tween-20, 0.1% BSA; 1:1 Langmuir
Chain of mRobo1 FN1-3 (mouse) (O89026 519-840): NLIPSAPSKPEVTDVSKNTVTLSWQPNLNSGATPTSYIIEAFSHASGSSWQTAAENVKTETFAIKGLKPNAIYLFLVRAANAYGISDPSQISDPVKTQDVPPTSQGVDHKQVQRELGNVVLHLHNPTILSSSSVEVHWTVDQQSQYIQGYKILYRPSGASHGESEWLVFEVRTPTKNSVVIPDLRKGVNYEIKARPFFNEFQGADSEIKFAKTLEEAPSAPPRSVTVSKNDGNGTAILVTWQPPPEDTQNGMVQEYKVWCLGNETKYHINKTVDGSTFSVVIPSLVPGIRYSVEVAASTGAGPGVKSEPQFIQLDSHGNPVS

[3] = target: mNELL2 (full length) (mouse); experiment: SPR; mNELL2 or mNELL2ΔCC (100 RU each, NHS-biotin) on a Biacore Series S SA chip; mRobo3 ECD or mRobo3 FN1 as analyte; regeneration with 10 mM EDTA; equilibrium analysis
mNELL2ΔCC (mouse) [4] = experiment: as above
[5] = target: mNELL2 (full length) (mouse); experiment: SEC; mNELL2 with excess mRobo3 FN1 on Superose 6 10/300; complex fractions quantified by fluorescent anti-His western blot against 1:1 standards
mNELL2ΔCC (mouse) [6] = experiment: SPR; mNELL2 or mNELL2ΔCC (100 RU each, NHS-biotin) on a Biacore Series S SA chip; mRobo3 ECD or mRobo3 FN1 as analyte; regeneration with 10 mM EDTA; equilibrium analysis; remark: listed apart in the source
[7] = target: biotinylated mouse Robo3 FN1–3 (Avi-tagged) (mouse) (UniProt Q9Z2I4); experiment: SPR; biotinylated mRobo3 FN1–3 captured on an SA chip (Biacore); mNELL2 EGF1–6 WT and mutants as analyte; 25 °C, 10 mM HEPES pH 7.2, 150 mM NaCl, 0.05% Tween-20, 0.1% BSA; 1:1 Langmuir isotherm
Chain of biotinylated mouse Robo3 FN1–3 (Avi-tagged) (mouse) (Q9Z2I4 558-869): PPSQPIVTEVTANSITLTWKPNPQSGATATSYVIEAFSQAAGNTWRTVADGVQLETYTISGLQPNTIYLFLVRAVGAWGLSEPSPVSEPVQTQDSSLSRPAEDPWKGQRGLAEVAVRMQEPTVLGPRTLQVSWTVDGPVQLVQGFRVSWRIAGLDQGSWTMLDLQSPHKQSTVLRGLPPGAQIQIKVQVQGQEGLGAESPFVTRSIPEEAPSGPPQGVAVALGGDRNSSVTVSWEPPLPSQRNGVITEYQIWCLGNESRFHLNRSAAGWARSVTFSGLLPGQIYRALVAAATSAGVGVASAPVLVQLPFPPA

[8] = target: mNELL2 (full length) (mouse); experiment: SEC-MALS; Superose 6 Increase 10/300 in HBS (10 mM HEPES pH 7.2, 150 mM NaCl), Wyatt HELEOS II
[9] = target: mRobo1 ectodomain (mouse) (UniProt O89026); experiment: SPR; mRobo1 ectodomain on a CM5 chip by random amine coupling (~1,200 RU); mNELL2 as analyte; 25 °C, 10 mM HEPES pH 7.2, 150 mM NaCl, 0.05% Tween-20, 0.1% BSA; KD from equilibrium responses assuming 50 to 100% active surface
Chain of mRobo1 ectodomain (mouse) (O89026 30-840): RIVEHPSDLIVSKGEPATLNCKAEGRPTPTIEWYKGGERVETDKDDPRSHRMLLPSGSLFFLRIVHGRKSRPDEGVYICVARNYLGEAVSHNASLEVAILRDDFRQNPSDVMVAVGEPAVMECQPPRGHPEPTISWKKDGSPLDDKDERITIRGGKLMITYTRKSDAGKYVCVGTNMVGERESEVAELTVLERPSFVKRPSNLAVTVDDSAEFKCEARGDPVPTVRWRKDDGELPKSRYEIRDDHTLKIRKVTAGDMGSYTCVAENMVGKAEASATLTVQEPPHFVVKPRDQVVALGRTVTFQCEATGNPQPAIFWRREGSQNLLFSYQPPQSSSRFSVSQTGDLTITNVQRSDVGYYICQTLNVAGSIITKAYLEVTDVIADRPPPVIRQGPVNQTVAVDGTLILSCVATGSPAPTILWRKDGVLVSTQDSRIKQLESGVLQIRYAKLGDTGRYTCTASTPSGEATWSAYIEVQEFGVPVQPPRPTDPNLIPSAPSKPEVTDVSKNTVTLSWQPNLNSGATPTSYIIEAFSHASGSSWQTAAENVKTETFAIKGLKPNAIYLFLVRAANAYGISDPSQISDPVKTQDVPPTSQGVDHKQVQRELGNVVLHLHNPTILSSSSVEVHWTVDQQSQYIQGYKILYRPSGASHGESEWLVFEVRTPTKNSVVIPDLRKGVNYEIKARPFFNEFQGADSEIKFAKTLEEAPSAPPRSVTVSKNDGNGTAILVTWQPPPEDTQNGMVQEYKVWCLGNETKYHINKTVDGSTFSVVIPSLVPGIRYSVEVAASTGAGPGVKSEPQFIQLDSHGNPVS

[10] = target: mRobo1 ectodomain (mouse) (UniProt O89026); experiment: as above; remark: listed apart in the source
[11] = target: full-ectodomain Robo surface (SPR with full-length NELL2 as analyte); experiment: SPR; mRobo3 ECD (167 RU) and mRobo1^Robo3-FN1 ECD (177 RU) biotinylated with NHS-Biotin and captured on a Biacore Series S SA chip; full-length mNELL2 as analyte; 1:1 Langmuir isotherm with a linear nonspecific-binding term; regeneration with 10 mM EDTA
[12] = target: NELL2, full length (Supplementary Fig. 9c; species not stated) (not stated (human or mouse cDNA cloned)) (UniProt Q99435); experiment: non-reducing SDS-PAGE; NELL2 and NELL2ΔCC on non-reducing (-DTT) and reducing (+DTT) SDS-PAGE; size from ladder standards

Chain of full-length mouse NELL2 (Q61220 25-819): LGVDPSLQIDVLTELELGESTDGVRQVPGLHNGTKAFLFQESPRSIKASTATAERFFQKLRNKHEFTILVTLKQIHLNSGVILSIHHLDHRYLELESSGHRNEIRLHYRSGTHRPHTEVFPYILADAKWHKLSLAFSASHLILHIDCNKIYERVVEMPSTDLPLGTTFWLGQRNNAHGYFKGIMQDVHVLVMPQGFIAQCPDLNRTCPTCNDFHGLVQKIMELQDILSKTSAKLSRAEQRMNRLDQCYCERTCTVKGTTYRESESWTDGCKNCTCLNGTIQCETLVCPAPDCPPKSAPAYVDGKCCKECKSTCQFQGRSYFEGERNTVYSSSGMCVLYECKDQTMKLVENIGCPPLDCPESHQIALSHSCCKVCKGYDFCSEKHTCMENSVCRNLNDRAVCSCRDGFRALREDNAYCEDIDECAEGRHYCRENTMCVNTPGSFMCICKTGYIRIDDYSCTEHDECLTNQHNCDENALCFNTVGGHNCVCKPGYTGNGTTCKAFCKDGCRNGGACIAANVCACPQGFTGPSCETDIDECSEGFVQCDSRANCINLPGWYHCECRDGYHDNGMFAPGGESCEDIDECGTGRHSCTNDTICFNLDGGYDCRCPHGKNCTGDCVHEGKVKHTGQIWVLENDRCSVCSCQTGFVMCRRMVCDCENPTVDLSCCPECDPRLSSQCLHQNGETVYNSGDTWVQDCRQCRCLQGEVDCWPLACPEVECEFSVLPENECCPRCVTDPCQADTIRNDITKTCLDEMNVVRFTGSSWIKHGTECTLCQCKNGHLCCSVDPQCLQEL

Q: How did the pKd (mRobo3 FN1-3 (mouse)) turn out when “mNELL2 EGF1-6 R448A/Y450A (domain or fragment)” was run?
A: 4.06

Q: mNELL2 EGF1-6 WT (domain or fragment) was tested. Which pKd [1] did it give?
A: 5.77

Q: What about the pKd [2] of the same substance?
A: 5.77

Q: And the pKd (mRobo3 FN1-3 (mouse))?
A: 6.15

Q: What about the pKd (mRobo1 FN1-3 (mouse)) of the same substance?
A: 4.86

Q: Which results are given for mRobo3 FN1 (domain or fragment)?
A: pKd [3]: 6.29; pKd (mNELL2ΔCC (mouse) [4]): 6.14; stoichiometry N (mNELL2:mRobo3 FN1 (molar ratio)) [5]: 1.16; pKd (mNELL2ΔCC (mouse) [6]): 6.15 and 6.05

Q: Which results are given for mRobo3 ectodomain (domain or fragment)?
A: pKd [3]: 6.05; pKd (mNELL2ΔCC (mouse) [4]): 5.74

Q: With “mNELL2 EGF1-6 V509A (domain or fragment)” as the substance, how does the pKd (mRobo3 FN1-3 (mouse)) read?
A: 5.77

Q: How did the pKd [7] turn out when “mouse NELL2 EGF1–6 L498A/F500A (domain or fragment)” was run?
A: < 4.00

Q: What about the fold reduction of affinity against wild-type mNELL2 [7] of the same substance?
A: 500 fold

Q: Which stoichiometry N [8] does the source give for mNELL2 (full length) (ligand) here?
A: 3

Q: And the pKd [1]?
A: 6.03

Q: What about the pKd [2] of the same substance?
A: 6.33

Q: And the pKd [9]?
A: < 4.00

Q: What about the pKd [10] of the same substance?
A: 3.46

Q: What does the source list for “mouse NELL2 EGF1–6 R452A (domain or fragment)”?
A: pKd [7]: 5.77; fold reduction of affinity against wild-type mNELL2 [7]: 2.4 fold

Q: How did the pKd [7] turn out when “mouse NELL2 EGF1–6 V509A (domain or fragment)” was run?
A: 5.77

Q: What about the fold reduction of affinity against wild-type mNELL2 [7] of the same substance?
A: 2.4 fold

Q: With “mouse NELL2 EGF1–6 R448A/Y450A (domain or fragment)” as the substance, how does the fold reduction of affinity against wild-type mNELL2 [7] read?
A: 120 fold

Q: With “full-length mouse NELL2 (from UniProt Q61220 25-819) (ligand)” as the substance, how does the pKd [11] read?
A: 6.00 to 6.30

Q: How did the stoichiometry N [12] turn out when “NELL2, full length (Supplementary Fig. 9c; species not stated) (from UniProt Q99435 22-816) (ligand)” was run?
A: 3

Q: How did the pKd (mRobo3 FN1-3 (mouse)) turn out when “mNELL2 EGF1-6 R452A (domain or fragment)” was run?
A: 5.77
